This series relates to MS2 coat protein. The series can be described thus: apparent KD of MS2 coat protein; designed switch direction (-1 OFF switch, 1 ON switch): 1; higher = weaker reporter binding. The method, boiled down:
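Designed RNA switches sharing common flanks were transcribed on Illumina chips by stalled E. coli RNA polymerase. They were titrated with SNAP-549-labelled MS2 coat protein, from 0.7 or 1.5 nM doubling to 3 µM, in Tris-HCl pH 7.5 buffer with KCl, MgCl2, BSA, DTT, tRNA and Tween-20. Titrations ran without input, with 200 uM small-molecule ligand, or with an oligonucleotide input. The apparent KD of each design is the median over its clusters, after curve-fitting of normalised cluster fluorescence.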

The mark [1] stands for this setting: Eterna round: R95, input ligand: FMN 200 uM.
Where [2] appears, read: Eterna round: R95, input ligand: microRNA oligo, concentration not stated.
The mark [3] stands for this setting: Eterna round: R95, input ligand: none.
[4] abbreviates: input ligand: microRNA oligo, concentration not stated.

In the case of “AUAAGUUUGAUGCUCGUCUCUCCGUACAGACAUGAGGAUCACCCAUGUAGUCAGGAAGUAGCCUGGCCAGUAUGGCC [Berave] (puzzle: Sensor for hsa-mir-208a)”, the “apparent KD of MS2 coat protein” value is, setting by setting: under setting [1], 27.5 nM; under setting [2], 16.6 nM; under setting [3], 31.1 nM.

Consider “AGUCCAGCCUGAGCUGGACAAAAGCAUGUACAUGAGGAUCACCCAUGUCAUGUACAAGCUUUUUGCUCGUCUUAGAA [Mat - hsa-mir-208a - Mod of JL - D26] (puzzle: Sensor for hsa-mir-208a)”, for which the “apparent KD of MS2 coat protein” value was determined as 624 nM under setting [1], 16.7 nM under setting [2] and 756 nM under setting [3].

With “GCAGCCGGCACUGAGGAUAUUCAUAUUAAAACAUGAGGAUCACCCAUGUAGGCCAGAAGGCCUUGGGAGAAGGCAGGUCGGCUGG [Mat - Same State 2 - Mod of UCT - D63] (puzzle: Same State 2)”, the “apparent KD of MS2 coat protein” value under setting [1] is 20.8 nM, the “apparent KD of MS2 coat protein” value under setting [2] stood at 219 nM and the “apparent KD of MS2 coat protein” value under setting [3] was determined as 232 nM.

With “CGUCCAGCCUGAGCUGGACAAAAGCAUGUACAUGAGGAUCACCCAUGUUCAUGUACAAGCUUUUUGCUCGUCUUACG [salish99_208a_r3_093x] (puzzle: Sensor for hsa-mir-208a)”, the “apparent KD of MS2 coat protein” value under setting [1] stood at 507 nM, the “apparent KD of MS2 coat protein” value under setting [2] was determined as 16.7 nM and the “apparent KD of MS2 coat protein” value under setting [3] was 617 nM.

Consider “CGGCGCUGUCGAGAGGAUAUGCGGUGAUGGACAUGAGGAUCACCCAUGUUAGCGAUAGCAUUACGGUAGAAGGCUCCACAGCUGU [Soteed Omei mod 12] (puzzle: Same State 2)”, for which the “apparent KD of MS2 coat protein” value is, setting by setting: under setting [1], 42.5 nM; under setting [2], 187 nM; under setting [3], 420 nM.

Turning to “ACAAGCUUUUCUGUAUUGAAAGGUGGGAUACAUGAGGAUCACCCAUGUUUGUUUGUUUAUUGUUUUCCUCGUCUUAU [JR_SHM208A_Sub089] (puzzle: Sensor for hsa-mir-208a)”, the “apparent KD of MS2 coat protein” value was found to be 71 nM under setting [1], 27.5 nM under setting [2] and 66.2 nM under setting [3].

As for “GAGGGACAGACCAACAUGAGGAUCACCCAUGUCCUCGCAGGUCAGGAUAUUAUGAGGAUCACCCAUGAGAAGGGACGGUGAACC (Eterna round: R96, puzzle: Same State NG 3)”, the “apparent KD of MS2 coat protein” value turned out to be 587 nM (input ligand: FMN 200 uM), 340 nM under setting [4] and 491 nM (input ligand: none).

As for “UGACACACGGCAGGAUAUCCUUAGCAAAGCUAAGGAGAAGGGCCUCAUGUCGUGGAAACGUGACAUGAGGAUCACCCAUGUCGC [Omei SS(NG)1 Cv8] (Eterna round: R96, puzzle: Same State NG 1)”, the “apparent KD of MS2 coat protein” value (input ligand: FMN 200 uM) came to 58.7 nM, the “apparent KD of MS2 coat protein” value under setting [4] came out at 5.65 nM and the “apparent KD of MS2 coat protein” value (input ligand: none) was found to be 34.1 nM.

Take “ACAUGAGACUCAGGAUAUCUUGUACCUACAUGUGACAUGAGGAUCACCCAUGUGGUAAGUAUGACAGAGAAGGGAGAGAUAUGU [Equivalance 87 - Jieux - Same State NG 2] (Eterna round: R96, puzzle: Same State NG 2)”: the “apparent KD of MS2 coat protein” value by setting is: (input ligand: FMN 200 uM) 26.7 nM; under setting [4], 47.2 nM; (input ligand: none) 64.1 nM.

As for “AUGGUGCAGGUACAGGAUAUGUUGCUCGUAACAUGAGGAUCACCCAUGUACCUAUGAGAUUAAAUGCAGAAGGGUGCACACCACU [Mat - Same State 2 - Mod of UCT - D89] (puzzle: Same State 2)”, the “apparent KD of MS2 coat protein” value under setting [1] was determined as 77.1 nM, the “apparent KD of MS2 coat protein” value under setting [2] was 613 nM and the “apparent KD of MS2 coat protein” value under setting [3] worked out at 158 nM.

With “GCUACCAUUGAAGCCAACAUGAGGAUCACCCAUGUAUGUUGGUAGGAUAUCGUUUGCUUUGCAAACGAGAAGGGCUAAGGUAGC [JL SSNG3 1.27] (Eterna round: R96, puzzle: Same State NG 3)”, the “apparent KD of MS2 coat protein” value reads like this: (input ligand: FMN 200 uM) 72.2 nM; under setting [4], 57.4 nM; (input ligand: none) 77.1 nM.

Regarding “AAUUUGGGACAUGAGGAUCACCCAUGUAUUAUAAAUGGGACAAGUUUUUUGCUCGUCUUAUACAUGGGUGAAAAUCU [Test] (puzzle: Sensor for hsa-mir-208a version 2)”, the “apparent KD of MS2 coat protein” value runs as follows: under setting [1], 17.8 nM; under setting [2], 21.7 nM; under setting [3], 23.7 nM.

“GAGUUACUAUCUCAGGAUAUCAUGUCAAAGACAUGAGGAUCACCCAUGUACCAGGAAACUGGUUAUGAGAAGGGAGAUAGUAACG [Mat - Same State 2 - Mod - D52] (puzzle: Same State 2)”: the “apparent KD of MS2 coat protein” value was found to be 112 nM under setting [1], 116 nM under setting [2] and 154 nM under setting [3].

Regarding “UAAAUAAUGUAAGGAUAUACAUGAGGAAUUCUCGUAGAAGGUACAUGACAUGAGGAUCACCCAUGUAUCGCUCCGUAGAGCGUA [Mat - Same State NG 1 - JL mod - D26] (Eterna round: R96, puzzle: Same State NG 1)”, the “apparent KD of MS2 coat protein” value (input ligand: FMN 200 uM) was found to be 288 nM, the “apparent KD of MS2 coat protein” value under setting [4] amounted to 5.78 nM and the “apparent KD of MS2 coat protein” value (input ligand: none) stood at 48.8 nM.

As for “GCCCAGAGUAUAUGGGUACAAGCUUUUUGACAUGAGGAUCACCCAUGUACUCGUCUUAUGUGCAGUCCGUAGACUGC [JL-shm-2.19 Brourd mod] (puzzle: Sensor for hsa-mir-208a)”, the “apparent KD of MS2 coat protein” value under setting [1] worked out at 18.2 nM, the “apparent KD of MS2 coat protein” value under setting [2] is 27.3 nM and the “apparent KD of MS2 coat protein” value under setting [3] turned out to be 17.4 nM.

On to “AACGUGGGCUAGCAGGAUAUACUGCGAGUAACAUGAGGAUCACCCAUGUUGUCCCGCAAGACAAUGUAGAAGGGCUGAUACCGCG [Atatlaor] (puzzle: Same State 2)”, for which the “apparent KD of MS2 coat protein” value worked out at 18.1 nM under setting [1], 28.4 nM under setting [2] and 26.5 nM under setting [3].

On to “UUCCCAGCGGGAGGAUAUGGUGCCUUAUUGGUGCUAGAAGGUCCAACAUGAGGAUCACCCAUGUGGGAGUGGUCUAAUGACCUC [SS NG10LRO07] (Eterna round: R96, puzzle: Same State NG 1)”, for which the “apparent KD of MS2 coat protein” value under setting [4] came out at 169 nM.

With “GACUAUCUAUCUCAGGAUAUCAUGUCAAAGACAUGAGGAUCACCCAUGUACCAGGAAACUGGUUAUGAGAAGGGAGAUAGAUAGG [Mat - Same State 2 - Mod - D43] (puzzle: Same State 2)”, the “apparent KD of MS2 coat protein” value under setting [1] came out at 81.1 nM, the “apparent KD of MS2 coat protein” value under setting [2] was found to be 26.3 nM and the “apparent KD of MS2 coat protein” value under setting [3] came out at 38.8 nM.

Turning to “AGUCCAGCCUGAGCUGGACAAAAGCAUGUACAUGAGGAUCACCCAUGUCAUGUACAAGCUUUUUGCUCAAAAUAAUA [Mat - hsa-mir-208a - Mod of JL - D33] (puzzle: Sensor for hsa-mir-208a)”, the “apparent KD of MS2 coat protein” value by setting is: under setting [1], 957 nM; under setting [2], 14.8 nM; under setting [3], 607 nM.

“GGUGGGUUACUACCAACACAUGAGGAUCACCCAUGUUUUGGGAAGGAUAUGGUACCUAUUUGGUACCAGAAGGUCCCGUUGGUG [salish99_SSNG3_r04_705] (Eterna round: R96, puzzle: Same State NG 3)”: the “apparent KD of MS2 coat protein” value reads like this: (input ligand: FMN 200 uM) 28.7 nM; under setting [4], 25.8 nM; (input ligand: none) 36 nM.

The values are drawn from the supplement of paper PMC9170038.
